Reference: the supplement of paper PMC12764529

Assay: folding stability dG unfold (combined trypsin and chymotrypsin); higher = more stable
Experimental: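 Folding stability of de novo designed mini-proteins (<80 aa, no Cys; designed by TrROS, TrMRF, ProteinMPNN and the joint model) was measured by cDNA display proteolysis with trypsin and chymotrypsin. Each protease was used at 11 concentrations in a threefold dilution series plus a no-protease condition. K50 was inferred by Bayesian fitting of sequencing counts, and dG unfold was derived against a sequence-predicted unfolded-state K50 (Tsuboyama et al. method). Sequences shown include variable-length N-terminal GS-type padding (SAGGSAGG...) inside a display construct carrying a PA tag. Rows were kept only if the AF2 dimer inter-PAE was >15, to exclude likely homo-oligomers.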

Sequence	folding stability dG unfold
SAGGSAGGSALLPLPEDAVLEVPFPGTEEEAEVFAAELAKAFPVGEITLEKEPTSYRLVVRSAGGSAGGSAG [r3_73_TrMRF]	< -1 kcal/mol
SAGGSAGGSAGGLTEEEILKKLGLSPDVELLEMPREPERGVYYVKVKKGEGPEEFVVEESAGGSAGGSAGGS [r10_17_JUSTAS]	< -1 kcal/mol
SAGGSAGGMKTIPLPGWTPEEFREVIKKHGGTFTIERPGGEKVTVDFTPDSEPPPEEPHTLIISSAGGSAGG [r6_304_JUSTAS]	< -1 kcal/mol
SAGGKDAIVNVVEIPIKIEVKTKTKNPILPDGIPIPETELEVKIEIPIKVKPVKVKLEKPGKIVSVEDSAGG [r13_148_TrMRF]	< -1 kcal/mol
SAGGSAGGSAASNGPLPVPLPETVIEAPLDEVPDEEIRARLPEELAEEFLRRMPPDATVLLSAGGSAGGSAG [r3_326_JUSTAS]	< -1 kcal/mol
SAGGSAGGSAGMLYRALVPHPDGSFSTALSEDARELERELLEATGIPPENIKIEPIPLETSAGGSAGGSAGG [r17_169_TrMRF]	< -1 kcal/mol
SAGGSAGGSAPMRMIPFRLPAPPGETIEIKFPNGKKHNISVEPHPDGWFHIMVNGGMIWIPASAGGSAGGSA [r18_372_TrROS]	< -1 kcal/mol
SAGGSAGGSAGGTVEELAKQIQEEWQENGFKVEKVEVEDGTIKIEWKNGRQREIPFEKGSAGGSAGGSAGGS [r10_169_TrROS]	< -1 kcal/mol
SAGGSAGGSASMKIAKEVRTDPNSDVTYRVEVYRLPGPNVLLVETTYPEGVELSLVEVDPPSAGGSAGGSAG [r3_123_JUSTAS]	< -1 kcal/mol
SAGGSAASRVSVEKLPNGTVVTPVEVEVTTYKPYPSYDGTPTTVPVTTRTTRTVTTEGNVVTTEVASAGGSA [r15_883_JUSTAS]	< -1 kcal/mol
SAGPKINLYRLPNGFLAAKSRSTRPDGKELGTWEKTYLVPGSGKPRTLELPIYDNEKGYVIYAYEEDYSAGG [r19_185_TrMRF]	< -1 kcal/mol
SAGGSAGGSAGRMYIIRNPGKKVIIPRGWMPKLQKKNPNVEIEEFESPEDADKAQDKALDSAGGSAGGSAGG [r11_60_TrROS]	< -1 kcal/mol
MKIVIDKDGNIRIEIIDKDGKKITLTLPVKTLEEALQKIKDLIRELFPDAKDLKVKVVEVKDGYVVIEVEPS [r1_389_TrROS_Hall]	> 6 kcal/mol
SAGMVLAPSTTETRLPGLRVRTETVVTTELAPDGRPTDVVAPTTTVTVTPPAPPPVFTEESVAAAFELESAG [r14_442_JUSTAS]	< -1 kcal/mol
SAGGSAGGSAGGGFEITLPDKPIKVLEARFIPEKKLVEVLAEHPDGVLVRGVFPPELKLGSAGGSAGGSAGG [r7_427_TrMRF]	< -1 kcal/mol
SAGGSAGGMPLRVDFRPSDSDEVTTRELPLTGDEEEARARVEAAAPPGVASVDLDPEAFRAAAASAGGSAGG [r6_889_JUSTAS]	< -1 kcal/mol
SAGGSMITKETFPGSEVLTYPEKGIRVELDDKNVTVYDIKPLPGKGEPVVLSSKTISKEELEKLIKSSAGGS [r8_174_JUSTAS]	< -1 kcal/mol
SAGGSAMKDFADAPGITDIHPYPDGTISIHFKSSPNARDKIVEALRKEGNIDIKTHPDHGMIRIKVSAGGSA [r15_554_TrROS]	< -1 kcal/mol
SAGGSAGGSAGWIKEALRDMPPGKPRRIPIRNPDGNPIKIRIKVDRDPENGKYEVPIEIVSAGGSAGGSAGG [r11_343_TrROS]	< -1 kcal/mol

Sequence	folding stability dG unfold
SAGGSAGGSAGGMRISIHHPKNGNPRHIPIDDIRNLPGPYKIHVEGPNPELAKEFLEQFSAGGSAGGSAGGS [r10_419_TrROS]	< -1 kcal/mol
VSPEEKEKLEKLAAEPKPIKRTLEITTVKSEGPVELYVFTKKYFVPGKGEEVGEEVVVVPPEEVEELLAELS [r1_415_JUSTAS]	< -1 kcal/mol
SAGGPNFEIEPEWDPDNGIVKETIKVPPGMTPEAINDALEIEFPDGMEVQIKPIKDGTIKVYMRMPKSAGGS [r8_255_TrROS]	< -1 kcal/mol
SGDSIHIPPNDLEYAKRIVKDLLDNGRDTIMMNSPEYKKELKEALPGVKVEPVPPMPPPPPSPEDKDKLNSA [r9_639_TrROS]	< -1 kcal/mol
SAGGSAGGSAGGGKNRPVIPITEGDKDEAKEFADTFQKEWRRQNGEPAQNVDIDIVPTPSAGGSAGGSAGGS [r10_1216_TrROS]	< -1 kcal/mol
SAGGSAGGSAGGPIKIDVQVMPHDNEWYIMIRREYPYPDGKRQEREIMIPADNVKDLDDISAGGSAGGSAGG [r7_835_TrROS]	< -1 kcal/mol
SAGGSASSIPPGKILSKKEFEVELPDGKKLKITILEVPGPTLALTEEPGEKKPKTYKVEELKKLLESAGGSA [r15_329_JUSTAS]	< -1 kcal/mol
SAGGNKITIEVNMNPEEGYYMVPIEIPRRDPNGEPEKRKIEVMVPMSPNAQEKAKNLANKLGIDKIYSAGGS [r8_381_TrROS]	< -1 kcal/mol
SAGGSAGGSAGGPNPRIIPLTFPVKDKEAVILLPPGVKPASIEVDPEDGRIRVNAVDPLSAGGSAGGSAGGS [r10_906_TrMRF]	< -1 kcal/mol
SAGGSAGGSAGGSGELTMMMVEPNPDGRVKVRTFKIELPPGGLKIDEVEEKTIPPEDAKSAGGSAGGSAGGS [r4_389_TrROS]	< -1 kcal/mol
EPEYVVFVDINPVFTRVDENGNVLEEFPRKVPYTGPGKDPEKVREELEREYGPPVKILKTLPKSEVDAGLLS [r1_493_JUSTAS]	< -1 kcal/mol
SAGGMEEIAEKLPVTKIETLEVDPEPPVVKVKLTLKDESGTEKEIELTIELPPEPLPVPKFPPERILLSAGG [r13_608_JUSTAS]	< -1 kcal/mol
SAGGSAGGSAGGSMVTTKDPNSPVTYTLVPRPTPEELVVKTTTNPDGTPTVTLLPASLLSAGGSAGGSAGGS [r4_434_JUSTAS]	< -1 kcal/mol
SAGGSAGGSAGGGMTVEEDPSSNIVTERIEYPDSIVTITRKRTPNPSWVTLATTTTPLGSAGGSAGGSAGGS [r10_840_JUSTAS]	< -1 kcal/mol
SAGGSAGGSAGGMKVVFNIHRPDSDEVLTVDDMEKLKETSLEELAKKLEEENGYPVEVVLSAGGSAGGSAGG [r7_259_JUSTAS]	< -1 kcal/mol
SAGGMKTIKLPPFTEEELEKVIEEAEKNPNSDVKITLPEGKEYYIKPPGKLKELKVEELPPLPESLESAGGS [r16_248_JUSTAS]	< -1 kcal/mol
SAGGSAGGSAGSPSEVKYSEEVLEEPLPGGVPYRLVVRTRTVLEGDKVVEEEEETELVLLSAGGSAGGSAGG [r11_35_JUSTAS]	< -1 kcal/mol
SAMTIPVLVEGDIEKLEEREEEIKREVAEELGLPEDLKDLKVEVLEIEPLPDEDGKPTKVRMLVEVHLRSAG [r14_736_TrMRF]	< -1 kcal/mol
SAGGSAGGSAGGGVRIKVEYPNNGQPHEFPIDENWTAESIKDKLEDRGLPPNHKITKIEPSAGGSAGGSAGG [r7_70_TrROS]	< -1 kcal/mol

Sequence	folding stability dG unfold
SAGGSAGGSASEIDELLAAGYTVLVKPPDGSEKVIKPGDTASNLDETFNLSPDAEFVIEPKSAGGSAGGSAG [r3_216_JUSTAS]	< -1 kcal/mol
SAGGSMTPAELANEIAEKLHEELPPDKSVTITMRFGSGPVTLTIPPDARVDVPEDRPLEVDEISIGSAGGSA [r2_391_JUSTAS]	< -1 kcal/mol
SAGGGGMTVEPVAERRFPSGRRITFYRRELPTPTVLEDVVVEYPDGSVRTITVPVGEEAAAVAAVLASAGGS [r16_588_JUSTAS]	< -1 kcal/mol
SAGGSAGGSAPQRFNIVLEVKEPETGKTKVVKRTLSSEEEALKKIPEGLEVKKITVLPPDVPLSAGGSAGGS [r12_208_JUSTAS]	< -1 kcal/mol
SAGGPPKIKITDIRPNKGHMRYKIKDPNKEVEIHMHGNSMHIEYPDGKEKTFDGPGSFEDAAKRIIEKSAGG [r13_98_TrROS]	< -1 kcal/mol
SAGGPPKKIEDIKIEDWRYDPENNQVTNTIELENDNGKEREIDVQMPNEDMEDMPPEEMLKAAKDFIDSAGG [r13_512_TrROS]	< -1 kcal/mol
SAGGSAGGSPGNIPINIKIEPYDPDGGEKRKRTIPFPFQDPEGARRHLNKIADEFPPGWRVEISAGGSAGGS [r20_211_TrROS]	< -1 kcal/mol
SAGGTIKEIFEKNGAEIETNPGQGVVTVEMRKPKRDDNGMPKPKPKGKHEIKVPGGDPEQALDNLLKHSAGG [r13_924_TrROS]	< -1 kcal/mol
SAGGSWIEKLPPDYTILLEKPDGTPFTRKIPANASEEEVLALNPPGSSKIELVSLDPSGRAVWRTPGSAGGS [r16_103_JUSTAS]	< -1 kcal/mol
SAGGSAFFRIKVEKNNGKKREIMFPIPENHDPSEAREMVKELAKNIARKQGHPNVPIKVTDIEPFPSAGGSA [r15_463_TrROS]	< -1 kcal/mol
SAGGSAGGSAGGSVVPPGAKVKVTLEGEEKVVEADSLSEIGEIKIGDKWVKVKKIEVEGSAGGSAGGSAGGS [r4_214_TrMRF]	< -1 kcal/mol
SAGMVKEVKSEEEAKKLPPGTLVKLTKPDPTSNKDVTYYRTYPDGSGGILAKSDSSGKVDLTPEIKKILSAG [r5_490_JUSTAS]	< -1 kcal/mol
SAGGSAGGSAGGSMYRIEIKMPNNPRTIWVPPDELPDDDLEEIAKENFPNIDKIKVWRWSAGGSAGGSAGGS [r4_235_TrROS]	< -1 kcal/mol
SAGGSAGGSAGGGSSMPLIPRKIETVEKPFRLPNGDVVIETTEIDTDADVEIPSVEVVLKSAGGSAGGSAGG [r7_213_JUSTAS]	< -1 kcal/mol
SAGGSAGGSAGTIRNPGMEFTIKKDPNDKVVVKMNDQERTIRVGKPIYFPGGMPFRIEPASAGGSAGGSAGG [r11_147_TrROS]	< -1 kcal/mol
SAGGSAGGSAYKLKDITMRRMPNGYHEVEIKVDNGKKIDVTIPPDNPGRSIEEFAKEVLDNSAGGSAGGSAG [r3_368_TrROS]	< -1 kcal/mol
SMPTTVLGSSPSVLPDGSVRYPVAVRRYPEYGVLVEETVTYFPGSGKFVPERRVEIPPDNPAALEWVRRESA [r9_980_JUSTAS]	< -1 kcal/mol
SAGGSAGGSAGGEPEPIPFRIKPHDEDGKKKGTFPINPLQKKGIPAEEFADKNGFEIEISAGGSAGGSAGGS [r10_153_TrROS]	< -1 kcal/mol
SAGGSAGGSAGLNVGDVVVEVEAGTEYEFLIPNPAKLVKVKVVPDPTTNELKVEEAKVYDLKSAGGSAGGSA [r18_222_TrMRF]	< -1 kcal/mol
